What was measured:
Type in all cases: cell-based, human
Jak1 phosphorylation = assay: IP/WB of Jak1 phosphorylation in healthy keratinocytes (IL-22); details: IL-22 10 min, no peptide, n = 3
Procedure: (§1) Figure 5 KIR-ESS peptide inhibits IL-22-induced phosphorylation of STAT3 and Erk in healthy and SCC-derived keratinocytes (A) Protein extracts obtained from healthy keratinocytes (n = 3) pre-treated or not with 15 μM (left panel) or 75 μM (right panel), KIR, KIR-ESS and control (Ctrl1 or Ctrl2) peptides, and, then, stimulated or not with IL-22 for 20 min, were subjected to WB analysis to detect STAT3 (Tyr705), Erk and MEK phosphorylation. Filters were probed with anti-STAT3, -Erk and –MEK Abs (top). (B) Protein extracts obtained from healthy keratinocytes (n = 3) pre-treated or not with 75 μM KIR-ESS and control (Ctrl1) peptides, and, then, stimulated or not with IL-22 for 10 min, were subjected to immunoprecipitation for IL-22R1 and Jak1, and then analysed by WB to detect phosphorylated and unphosphorylated forms of the proteins. (C) Unphosphorylated and phosphorylated forms of STAT1 (Tyr701) and STAT3 (Tyr705) were monitored in keratinocytes treated with IFN-γ for 15 min by WB analysis (bottom). In all experimental groups, filters were stripped and re-probed with β-actin Ab. (D) Protein extracts were obtained from CAL27 (left panel) or CAL33 (right panel) lines treated or not with 75 μM peptides in presence of IL-22 or IFN-γ. WB was performed to detect basal and phosphorylated STAT1, STAT3 and Erk. […]

[1] = test system: STAT3 phosphorylation in healthy keratinocytes; assay: Western blot of STAT3 phosphorylation in healthy keratinocytes (IL-22); details: IL-22 time course, no peptide, n = 3
Procedure: as §1, with “[…],” for “stimulated or not with IL-22 for 20 min,”, “Erk. D.I. ratio indicates the densitometric intensity of phosphorylated/unphosphorylated target protein.” for “Erk.”

MEK phosphorylation = assay: Western blot of MEK phosphorylation in healthy keratinocytes (IL-22); details: IL-22 time course, no peptide, n = 3
Procedure: as §1, with “[…],” for “stimulated or not with IL-22 for 20 min,”, “Erk. D.I. ratio indicates the densitometric intensity of phosphorylated/unphosphorylated target protein.” for “Erk.”

Tyk2 phosphorylation = Tyk2 phosphorylation in healthy keratinocytes (IL-22); details: IL-22 10 min, no peptide, n = 3
Procedure: 2nd- or 3rd-passage cultures of human keratinocyte strains (n = 5), obtained as previously described, were grown in serum-free Keratinocyte Growth Medium (KGM; Clonetics, Walkersville, MD, USA), for 3–5 days (at 60–80% confluence) before performing experiments. The HaCaT human keratinocyte cell line was a gift from N.E. Fusenig (Deutsches Krebsforschungszentrum, Heidelberg, Germany), and was grown in Dulbecco modified Eagle medium (DMEM; Biochrom, Cambridge, UK) supplemented with 10% Fetalclone II serum (HyClone Laboratories, South Logan, UT, USA). SCC-derived cell lines, CAL27-and CAL33 (American Tissue Culture Collection, ATCC, Milan, Italy), SCC12, SCC13 and SCC-15 (kindly provided by Dr. A. Marconi, University of Modena e Reggio Emilia, Italy), as well as M77015-08 and TE354.T (ATCC) were grown in DMEM (Biocrhom AG, Cambridge, UK) with 10% fetal bovine serum (HyClone Laboratories). Primary cultures of healthy keratinocytes and skin tumor cell lines were treated with peptides (KIR, KIR-ESS, Ctrl1 and Ctrl2) resuspended in 1X PBS for 1 h and, then, stimulated with 50 ng/ml IL-22 or 200 U/ml IFN-γ (R&D Systems, Minneapolis, MN, USA) in keratinocyte basal medium (KBM, Clonetics) or DMEM, respectively.
Total protein extracts were prepared as previously reported. Immunoprecipitation and immunoblotting were performed accordingly to standard procedures. […]

B1: IL-22: cytokine stimulus, R&D Systems (protein, UniProt Q9GZX6 34-179, looked up)
Interleukin-22: APISSHCRLDKSNFQQPYITNRTFMLAKEASLADNNTDVRLIGEKLFHGVSMSERCYLMKQVLNFTLEEVLFPQSDRFQPYMQEVVPFLARLSNRLSTCHIEGDDLHIQRNVQKLKDTVKKLGESGEIKAIGELDLLFMSLRNACI
For B1, which Jak1 phosphorylation induced (Jak1 phosphorylation) is on record?
The Jak1 phosphorylation induced was “induced molecular cascade implicating phosphorylation of IL-22R1, Tyk2 and Jak1”.

What about the STAT3 activation [1] of the same molecule?
Its STAT3 activation is “culminated with STAT3, MEK1/2 and Erk1/2 activation”.

What about the MEK1/2 activation (MEK phosphorylation) of the same molecule?
The MEK1/2 activation was “culminated with STAT3, MEK1/2 and Erk1/2 activation”.

And the Tyk2 phosphorylation induced (Tyk2 phosphorylation)?
The Tyk2 phosphorylation induced was “induced molecular cascade implicating phosphorylation of IL-22R1, Tyk2 and Jak1”.

— publication PMC5421877, “SOCS3 inhibits the pathological effects of IL-22 in non-melanoma skin tumor-derived keratinocytes” (Oncotarget, 2017)
